Laboratory results as given in paper doi:10.1101/2020.06.09.143594 (bioRxiv, 2020).

Biological target: the molecule itself
Assay: cross-linking

B1: σ1 M332C, S370P, Q371E, S403C of the HeadΔSA mutant virus, on purified virions (natural protein, UniProt P04506 1-470, looked up)
chain: MDASLITEIRKIVLQLSVSSNGSQSKEIEEIKKQVQVNVDDIRAANIKLDGLGRQIADISNSISTIESRLGEMDNRLVGISSQVTQLSNSVSQNTQSISSLGDRINAVEPRVDSLDTVTSNLTGRTSTLEADVGSLRTELAALTTRVTTEVTRLDGLINSGQNSIGELSTRLSNVETSMVTTAGRGLQKNGNTLNVIVGNGMWFNSSNQLQLDLSGQSKGVGFVGTGMVVKIDTNYFAYNSNGEITLVSQINELPSRVSTLESAKIDSVLPPLTVREASGVRTLSFGYDTSDFTIINSVLSLRSRLTLPTYRYPLELDTANNRVQVADRFGCRTGTWTGQLQYQHPQLSWRANVTLNLMKVDDWLVLSFPEMTTNSIMADGKFVINFVSGLSSGWQTGDTEPCSTIDPLSTTFAAVQFLNNGQRIDAFRIMGVSEWTDGELEIKNYGGTYTGHTQVYWAPWTIMYPCNVR
Question: Does B1 bind?
Answer: binds
